The values below are quoted from earlier work in PMC3713533.

The target in the series is VWF73 VWF73 (Homo sapiens) (UniProt P04275).
Chain of UniProt P04275 (P04275 1596-1668): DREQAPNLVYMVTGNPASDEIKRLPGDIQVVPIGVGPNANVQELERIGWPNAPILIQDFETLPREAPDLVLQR

With “ADAMTS13 TSP1 repeat 1 (from UniProt Q76LX8)”, the dissociation constant Kd was 136 nM.
